Article PMC11613296

Molecular target: Tau (2N4R Tau; Tau(291–391)) 2-441 (UniProt P10636)
Test: ELISA, immobilised Tau(291–391), soluble 2N4R Tau
Settings: reference: unmodified (WT) Tau(291–391)

binding against the reference (sites S352) | binding against the reference (sites S356) | Substance
weaker | – | Tau (2N4R Tau; Tau(291–391)) 291-391 (from UniProt P10636-8) pS352 Tau(291–391)
– | weaker | Tau (2N4R Tau; Tau(291–391)) 291-391 (from UniProt P10636-8) pS356 Tau(291–391)
